“And” between values parts separate entries of the source, which are not always exact repeats. Equal entries are not always repeated. Marks after values point to notes of the source that are not given here.
Columns and labels:
[1] = substrate: O=C(O)[C@H]1O[C@@H](Oc2ccc([N+](=O)[O-])cc2)[C@H](O)[C@@H](O)[C@@H]1O; test: purified protein, by the assay type; assay type: biochemical, Ruminococcus gnavus; conditions: other: pNPG as substrate, optimal pH 6.5, apparent value estimated at low pNPG concentrations, 37.0 °C
[2] = substrate: O=C(O)[C@H]1O[C@@H](Oc2ccc([N+](=O)[O-])cc2)[C@H](O)[C@@H](O)[C@@H]1O; test: purified protein, by the assay type; conditions: other: pNPG as substrate

B1: Ruminococcus gnavus GUS (RgGUS) (Mediterraneibacter gnavus) (protein)
chain: MLEYSELYPIQNGHRMMQSLDGMWKFQFDPEEIGEKSGWENGLPAPVSMPVPSSFADFFTDHKERDYCGDFWYETEFYLPAEWRNKKIWLRFGSITHRGTVYCNGMEITSHEGGFLPVLADISTVAKPGQVNQVVVKINNELNETSLPCGATKILNNGRKLAKPYFDFFNYSGLQRSVWVIALPEESVKDYSVDYELCGTDALVKYEVVTTGEHPVIVRLLDAEGELVAETEGKEGILQVANAHLWEVRNAYLYQIVILITDGNGVLDEYREKIGIRTVRIEGTQILLNDRPVYLKGFGKHEDFSILGRGFHWGIVKRDFECLKWTNANCFRTSHYPYAEEWYQFADEEGFLIIDEVPAVGMMRSTRNFVAAGSGNYTYFFEALTVPELLKSHIADTEEMITRDKNHPSVIAWSLFNEPETITDYAYEYFKEVFAAAETYDFQSRPMTGAFEKNSKPELCKCYPLCDFICLNRYYGWYISGGPEIEEAEELFRDEMDRWKAKELNVPFVFTEFGTDTMAGLHKLPSIMWSEEYQKEYLEMNFRVFDSYEFVQGELAWNFADFQTTEGIMRVDGNHKGVFTRDRQPKAAAVVFKDRWEKKNELF
In the case of B1, the Km [1] is reported as 1.4 ± 0.2^b mM, the kcat [1] is reported as 2.8 ± 0.3 s⁻¹ and the kcat/Km [1] is reported as 2000 ± 100 M⁻¹ s⁻¹.

B2: Eubacterium eligens GUS (EeGUS) (Lachnospira eligens ATCC 27750) (protein)
chain: MLYPVLTQSRLLSDLSGVWDFKLDNGKGFEEKWYEKPLKDADTMPVPASYNDLKEGTDFRDHYGWVFYQRNISVPEYVKSQRIVLRCAAVTHYAMIYLNGKLICEHKGGFLPFEVELNDDLQDGDNLLTIAVNNVIDYTTLPVGGKANMMSGMMGGMGAGASDKPQNNPNFDFFNYCGITRPVKIYTTPETYINDITVTADIDFTKEEPSAVLNYNVEIKGKDYNNITCKVELFDEEGTKLSETEGSEGTFEISNVRLWQPLNAYLYKIKVTAGQDVYTLPYGVRSVRVDGTKFLINEKPFYFKGYGKHEDTFPNGRGINLPMNTKDISIMKWQHANSFRTSHYPYSEEMMRLCDEEGIVVIDETTAVGVNLQFGGGANFGGERIGTFDKEHGVQTQEHHKDVIRDLISRDKNHACVVMWSIANEPDSAAEGAYDYFKPLYDLARELDPQKRPCTLVSVQGTTADTDCSSQLSDVICLNRYYGWYFGGPDLEVSEIGLRKELSDWGKLGKPVMFTEYGADTVSGLHDTTSVMYTEEYQVEYYEMNNKVFDEFDFVVGEQAWNFADFATSQSLLRVQGNKKGLFTRDRKPKMVAHYFRNRWSTIPEFGYKTK
For B2, the Km ([2]; optimal pH 6.5, 37 °C) was 223 ± 8 µM, the kcat ([2]; optimal pH 6.5, 37 °C) was 120 ± 8 s⁻¹ and the kcat/Km ([2]; optimal pH 6.5, 37 °C) was 540000 ± 20000 M⁻¹ s⁻¹.

B3: Faecalibacterium prausnitzii GUS (FpGUS) (Faecalibacterium duncaniae) (protein)
chain: MNRSLLYPRATTTRRLIGLDGMWRFSFDPESKGVEAGWALDLPSSLSMPVPASFCDLFTDKASREYCGDFWYETSFFVPAEWSGWDIVLRFGSVTHRARVFVNGVEVAQHEGGFLPFDATVTNIVRYNQFNKLSVLANNELSETMLPAGTTCTLADGRKIAAPYFDFYNYAGIHRPVWLMALPKERVLDYSTRYRLTETGAEIDYTVSTNGPHPVTVELYDGTTRVAESSGTTGTLVVKNARLWNVHAAYLYDLVIRIHEGSAVVDEYLDRIGIRTFEIRHGRFLLNGSPVYLRGFGRHEDADIRGRGLDLPTVKRDFELMKWIGANCFRTSHYPYAEEIYQMADEEGFLIIDEVPAVGFMQSTANFLAANQGNGRQQGFFEKETTPALLKNHKAALTDMIDRDKNHPSVIAWSLLNEPQCTSAGTEEYFKPLFELARRLDPQKRPRTYTVLMTSLPDTSKGQRFADFVSLNRYYGWYVLGGAGLADAEAAFHHEMDGWAKVLHGRPLIFTEYGTDNLSGAHKLPSVMWSAEYQNEYLEMTHAVFDHYDFVQGELVWNFADFQTTEGILRVDGNKKGIFTRQRQPKDAAYLFRKRWTTLPVDFKKRKK
B3 was tested, and the Km ([2]; optimal pH 6.0, 37 °C) was 2200 ± 300 µM, the kcat ([2]; optimal pH 6.0, 37 °C) was 58 ± 4 s⁻¹ and the kcat/Km ([2]; optimal pH 6.0, 37 °C) was 27000 ± 2000 M⁻¹ s⁻¹.

B4: Lactobacillus rhamnosus GUS (LrGUS) (Lacticaseibacillus rhamnosus) (protein)
chain: METSLLYPVTNDQRTDQKLDGLWQFKFDEAGEGEKSGWETGFHDGVSMPVPASFNDFFTDKASREYTGDFWYSRNFFVPSAAKGKALFLRFDAVTHRATIFVNGKEIRTHEGGFLPFAADISEAVKYGAENTVVVKGNNELSREALPAGDTITLRNGKKMVRPFFDFYNYSGLNRSVHLLSLPQERVLDYTTTFALAGNDATVNYTVETNGDAPVTVSLADADGQVVATAQGKQGALQVQNAHLWQVRNAYLYTLTIQLGDDTQTPLDTYTDRIGIRTIKISGTDILVNDKPIYLKGFGRHEDSPFAGRAFDLNVEKKDFALMKWIGANSFRTSHYPYDEQVYKIADEEGFLLTDEVPAVGFKMAAAAFLGGLNQSFFKGPWLKKLHERHIDQIRDLIKRDKNHPSVLAWSLFNEPDTIDENAVPYFKQIFDESKDLDPQGRPRTFTLSEDDTIETSKVLDFPDFYMLNRYPGWYHFGGYQISDGEAGLRDEMDKWQKAGVKKPVVFTEFGADTEAGLHKLPSVMWTEEYQVEVLKMFSRVFDDYDFIKGEQVWNLADFQTVEGNMRVNGNKKGIFTRDRQPKAAAFFYHDRWNKLPLDYKAK
B4 showed a Km ([2]; optimal pH 4.5, 37 °C) of 1500 ± 100 µM, a kcat ([2]; optimal pH 4.5, 37 °C) of 10 ± 0.7 s⁻¹ and a kcat/Km ([2]; optimal pH 4.5, 37 °C) of 6700 ± 300 M⁻¹ s⁻¹.

B5: Streptococcus agalactiae GUS (SaGUS) (Streptococcus agalactiae 2603V/R) (protein)
chain: MLYPLLTKTRNTYDLGGIWNFKLGEHNPNELLPSDEVMVIPTSFNDLMVSKEKRDYIGDFWYEKVIEVPKVSEDEEMVLRFGSVTHQAKIYVDGVLVGEHKGGFTPFEVLVPECKYNNEKIKVSICANNVLDYTTLPVGNYSEIIQEDGSIKKKVRENFDFFNYAGVHRPLKLMIRPKNHIFDITITSRLSDDLQSADLHFLVETNQKVDEVRISVFDEDNKLVGETKDSRLFLSDVHLWEVLNAYLYTARVEIFVDNQLQDVYEENFGLREIEVTNGQFLLNRKPIYFKGFGKHEDTFINGRGLNEAANLMDLNLLKDMGANSFRTSHYPYSEEMMRLADRMGVLVIDEVPAVGLFQNFNASLDLSPKDNGTWNLMQTKAAHEQAIQELVKRDKNHPSVVMWVVANEPASHEAGAHDYFEPLVKLYKDLDPQKRPVTLVNILMATPDRDQVMDLVDVVCLNRYYGWYVDHGDLTNAEVGIRKELLEWQDKFPDKPIIITEYGADTLPGLHSTWNIPYTEEFQCDFYEMSHRVFDGIPNLVGEQVWNFADFETNLMILRVQGNHKGLFSRNRQPKQVVKEFKKRWMTIPHYHNKKNSVK
B5 was tested, and the Km ([2]; optimal pH 6.5, 37 °C) was 170 ± 10 µM, the kcat ([2]; optimal pH 6.5, 37 °C) was 120 s⁻¹ and 122 s⁻¹ and the kcat/Km ([2]; optimal pH 6.5, 37 °C) was 720000 ± 30000 M⁻¹ s⁻¹.

B6: Bacteroides uniformis GUS (BuGUS) (Bacteroides uniformis str. 3978 T3 ii) (protein)
chain: QRQTQTINDSWKFLKGECTAAADSAFDDSKWTSIHLPHTWNTDAYTEKDYYRGTGWYRRQLTLPQGWKEKQIILRLDAAGKSATIYINGKNVGEHAGGYTACSFNITPFLSFDTPNTLAVCVDNARQDIAPISGDFTFFGGIYRDVWLTAVPNQHFNLTNHGSDGLFISTPQVSEEQATLSIRGEVKNDAPEKATLELTHTIYRPDGTLLQTLKKNIQLKAGETYAFSNEATPVLKPELWTPETPRLYRVETTLRNRKTKTLLDQSNHYTAFRWFRFDGDEGFFLNGKPYKLRGICRHQDQKPIGPALTDEMHRRDFLLMKEMGANFIRISHYPQDDALLEMCDKLGMLAWEEIPIIDIVPNTPGYGDNCERNLREMIRQHYNHPSIITWGYMNEILLVTQRKYKTEAELKPVLERTLALANRLERVLKEEDSTRISTMAFHGSNSYNETGLSKITDIVGWNLYQGWYGGDLTGFEKFLAQQHQNHPTHPMIVSEYGAGSDKRLHSLHPRAFDFSIEYQQKYLEHYLPVLEDTPYICGGTHWNFIDFSSALRDESMPRINNKGLVYADRTPKDVYHYYQAAWRKDIPVLHIASRDWTDRAGVQQGNAPVYLPVKIYTNLSEVELFIDGISLGKQKTENYTATFEVPFSNRNPFLFAQGNYQGKTVQDGLRINFTPIPACLDANNLKGLELAVNVGSQCFFTSDESQLTWLPDQPYAAGSWGYIGGKEGTAQTEIQNTADGPLFQTLRNEIEGYRFDAPQGVYEIELLFTDIFRRNAGIAYQLDRNGQQENRESTFGISINGEVVEESLSPCKESGYFRALRKKYYITNDKEYIDIRFHSTSGTCFLNGIKLRNIY
In the case of B6, the Km ([2]; optimal pH 5.5, 37 °C) is reported as 540 ± 60 µM, the kcat ([2]; optimal pH 5.5, 37 °C) is reported as 37 ± 2 s⁻¹ and the kcat/Km ([2]; optimal pH 5.5, 37 °C) is reported as 71000 ± 6000 M⁻¹ s⁻¹.

B7: Bacteroides dorei GUS (BdGUS) (Phocaeicola dorei CL02T12C06) (protein)
chain: SEISITDSWKYKAENDERFSSMDWNDSDWVTVDLPHTWNAGDVIDEQRGYRRGISWYRKKLFIPSEARDKKITLRFDGVASKADVYLNGKLLKTHLGAYTAFGVDITDICEVGKENLLAVKVDNSSSLGEILPPVSGDFSIFGGIYRRVFLQWTEKVHFVTEPYAAVPVRIQTPEVSVSEASMQIVAFLKNDFTDTKHVHVNVFLCDEMNRIVKEKQLKLKLIPGRKYPISTSVGRIENPHLWSPELPYLYTVKVQVCDAKNGEMYQEVISPVGFRWFSVDKTGFYLNGKYLKLRGAARHQDYAGLGTAIPVEMNRRDMRLLKEMGANFVRISHYPQDPEIYRACDELGLIVWSEICVVNEVRKNAAFAHNCKEMLKEMILQNYNHPSVVLWGAMNELWDYHKQAIALARELEALKKELDPYRLSCVAFHAFTWEKPYTQSSKEMFSISDVNGVNVYESWYQGDSATIAPMFDKFCSYSTAKPRFLSEFGAGSDERIHSYTPRTFDFTPEFQLDFNRRYINEMEKRPDYIGYSIWNLVDFQVDGRGDSKPNLNQKGMLTEDRRKKEIYYYCQARWSDIPMIHIAGADWTKRVEICDDSINVRKISVFSNQKTVELIHNGKSLGVREVVNGEAVFAVPFINGENLLDARSGALSDRLKIQMKLLSSRLTDSDVLLDGLCINLGQEHCYFIDPQLQEIWIPDKPYTKGSWGYMDGKPFNSWPGSSHDGVRYGVGADIKNTFLEPLFQTFLIGTTCYRLDVPDGVYEIGFYFTEPFSKDERKNIVRTGVSAEGQRVFDVSVNGEKLIDSLNLADSYGEQTAVVKTLVVNVRNHEGLEILLSPQKGQGVISGLKVKKIR
For B7, the Km ([2]; optimal pH 6.0, 37 °C) was 1400 ± 100 µM, the kcat ([2]; optimal pH 6.0, 37 °C) was 7.5 ± 0.4 s⁻¹ and the kcat/Km ([2]; optimal pH 6.0, 37 °C) was 5200 ± 500 M⁻¹ s⁻¹.
